The results in this text go back to patent US20040131585A1.

This assay has as its target human CXCR4 on intravenously injected human CD34+ angioblasts (human) (UniProt P61073). Description: cell-based or functional assay.
Chain of UniProt P61073 (P61073 whole entry): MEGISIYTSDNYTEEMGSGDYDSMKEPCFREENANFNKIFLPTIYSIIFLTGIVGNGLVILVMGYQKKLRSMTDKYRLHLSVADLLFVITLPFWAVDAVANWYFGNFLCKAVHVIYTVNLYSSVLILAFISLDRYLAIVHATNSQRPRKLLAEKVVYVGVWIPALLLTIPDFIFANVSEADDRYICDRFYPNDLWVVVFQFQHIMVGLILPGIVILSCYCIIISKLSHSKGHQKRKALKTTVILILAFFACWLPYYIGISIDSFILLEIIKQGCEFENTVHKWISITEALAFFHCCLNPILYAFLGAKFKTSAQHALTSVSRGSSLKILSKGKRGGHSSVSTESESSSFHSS

With “rat SDF-1 (stromal-derived factor-1) (ligand)”, the increase in trafficking of CD34+ human angioblasts to ischemic rat myocardium, with co-administered mAb against human CXCR4 was determined as 24% and the increase in trafficking of CD34+ human angioblasts to ischemic rat myocardium, with co-administered mAb against rat SDF-1 amounted to 17%.
